# In PMC9344649, “Involvement of MdWRKY40 in the defense of mycorrhizal apple against fusarium solani”:
# How the values were obtained:
# MdWRKY40 [1] = molecular target: T1, MdWRKY40 (Malus domestica, UniProt A0A7S5ATZ6 1-302); experiment: EMSA; cold probe weakens binding; EMSA: binding buffer not specified, 24 °C, 30 min; salt and pH not stated; conditions: protein: recombinant; tags: His tag, pET-32a(+) fusion; blunt
# MdWRKY40 [2] = molecular target: T1, MdWRKY40; experiment: EMSA; text says not bound; the only printed mutant is of W-box 3, so numbering of 2 and 3 is uncertain; EMSA: binding buffer not specified, 24 °C, 30 min; salt and pH not stated; conditions: protein: recombinant; tags: His tag, pET-32a(+) fusion; blunt
# T1 sequence (A0A7S5ATZ6 entry or part of it): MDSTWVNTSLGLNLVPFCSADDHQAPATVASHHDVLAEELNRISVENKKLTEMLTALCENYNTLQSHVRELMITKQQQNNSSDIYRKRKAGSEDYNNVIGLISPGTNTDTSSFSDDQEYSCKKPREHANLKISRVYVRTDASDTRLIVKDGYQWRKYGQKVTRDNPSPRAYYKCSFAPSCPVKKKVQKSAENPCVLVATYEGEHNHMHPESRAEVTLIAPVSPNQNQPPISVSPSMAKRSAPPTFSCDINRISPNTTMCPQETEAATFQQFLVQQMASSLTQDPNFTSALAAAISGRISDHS
Binder,binding result (MdWRKY40 [1]),binding result (MdWRKY40 [2])
proMdGLU W-box 2 probe (dsDNA) DNA 1: ATCACAAATAAAATTGATATTTGACCAACTACATGCCACGATCACA DNA 2: TGTGATCGTGGCATGTAGTTGGTCAAATATCAATTTTATTTGTGAT,binds,
proMdGLU W-box 3 probe (dsDNA) DNA 1: CTTTCCCCCCTATAAATACTTTGACCACCAACTCCCCAATCCTCCA DNA 2: TGGAGGATTGGGGAGTTGGTGGTCAAAGTATTTATAGGGGGGAAAG,,no binding
